In paper PMC4482739, “MamA as a Model Protein for Structure-Based Insight into the Evolutionary Origins of Magnetotactic Bacteria” (PLoS ONE, 2015):
Several values for one entry are separate records, joined by “and”; a condition that tells them apart may be missing. Equal entries are not always repeated. Each block holds one molecule with its values, some of them ahead of it.

How the values were obtained:
[1] = molecular target: MamAΔ41 RS-1 TM (triple mutant E140A, K141A, E143A) (Desulfovibrio magneticus RS-1); test: crystal structure; X-ray, 2.88 Å, space group I4; crystals from 0.1 M Tris pH 8.1, 0.75 M sodium potassium tartrate, 0.5% PEG monomethyl ether 5000; six monomers as two trimeric rings in the asymmetric unit
[2] = molecular target: MamAΔ41 RS-1 TM (triple mutant E140A, K141A, E143A) (Desulfovibrio magneticus RS-1); test: SEC; Superdex 200, buffer E (10 mM HEPES pH 7.5, 0.5 M NaCl, 5 mM βME); sizes from elution volumes against a standard calibration curve
[3] = molecular target: MamAΔ41 from Desulfovibrio magneticus RS-1 (wild type) (Desulfovibrio magneticus RS-1); test: as above
[4] = molecular target: the molecule itself; test: SEC; Superdex 200; sizes from elution volumes against protein markers; buffer for these proteins not stated

- stoichiometry N [1]: 3
- stoichiometry N [2]: 13 and 8
Molecule: MamAΔ41 RS-1 TM (triple mutant E140A, K141A, E143A) (domain or fragment)

- stoichiometry N [3]: 8
Molecule: MamAΔ41 from Desulfovibrio magneticus RS-1 (wild type) (domain or fragment)

B1: MamAΔ41 from Magnetospirillum gryphiswaldense MSR-1 (domain or fragment, UniProt Q93DY9 42-217, looked up)
chain: DDIRQVYYRDKGISHAKAGRYSEAVVMLEQVYDADAFDVEVALHLGIAYVKTGAVDRGTELLERSIADAPDNIKVATVLGLTYVQVQKYDLAVPLLVKVAEANPVNFNVRFRLGVALDNLGRFDEAIDSFKIALGLRPNEGKVHRAIAYSYEQMGSHEEALPHFKKANELDERSAV
notes: MamA of Magnetospirillum gryphiswaldense MSR-1, Δ41 mutant (the putative N-terminal TPR repeat removed); Trimer by SEC; also called MamAΔ41_(MSR-1)
- stoichiometry N [4]: 3
